In patent US20140072613A1 (published 2014):

How the values were obtained:
Assay in all cases: cell-based or functional assay
ULK3(h) = biological target: T1, ULK3(h) (human, UniProt Q6PHR2 1-472, limits assumed)
T1 sequence (looked up): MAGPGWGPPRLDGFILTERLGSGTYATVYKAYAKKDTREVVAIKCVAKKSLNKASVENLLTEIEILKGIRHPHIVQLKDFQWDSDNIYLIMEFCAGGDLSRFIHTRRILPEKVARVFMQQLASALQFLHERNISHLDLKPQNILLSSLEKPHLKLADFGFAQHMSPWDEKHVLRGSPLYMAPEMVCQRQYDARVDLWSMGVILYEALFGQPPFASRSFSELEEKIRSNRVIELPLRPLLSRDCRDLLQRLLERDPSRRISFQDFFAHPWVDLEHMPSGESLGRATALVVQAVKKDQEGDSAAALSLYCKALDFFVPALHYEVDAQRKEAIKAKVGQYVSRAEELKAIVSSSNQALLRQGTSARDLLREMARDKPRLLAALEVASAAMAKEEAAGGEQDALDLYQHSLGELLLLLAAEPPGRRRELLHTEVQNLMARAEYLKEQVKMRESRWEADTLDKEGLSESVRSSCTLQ

PKCβII(h) = PKCβII(h) (human, UniProt P05771-2 1-673)
PKCβII(h), sequence (P05771 other isoform, or with tags, fused parts or gaps): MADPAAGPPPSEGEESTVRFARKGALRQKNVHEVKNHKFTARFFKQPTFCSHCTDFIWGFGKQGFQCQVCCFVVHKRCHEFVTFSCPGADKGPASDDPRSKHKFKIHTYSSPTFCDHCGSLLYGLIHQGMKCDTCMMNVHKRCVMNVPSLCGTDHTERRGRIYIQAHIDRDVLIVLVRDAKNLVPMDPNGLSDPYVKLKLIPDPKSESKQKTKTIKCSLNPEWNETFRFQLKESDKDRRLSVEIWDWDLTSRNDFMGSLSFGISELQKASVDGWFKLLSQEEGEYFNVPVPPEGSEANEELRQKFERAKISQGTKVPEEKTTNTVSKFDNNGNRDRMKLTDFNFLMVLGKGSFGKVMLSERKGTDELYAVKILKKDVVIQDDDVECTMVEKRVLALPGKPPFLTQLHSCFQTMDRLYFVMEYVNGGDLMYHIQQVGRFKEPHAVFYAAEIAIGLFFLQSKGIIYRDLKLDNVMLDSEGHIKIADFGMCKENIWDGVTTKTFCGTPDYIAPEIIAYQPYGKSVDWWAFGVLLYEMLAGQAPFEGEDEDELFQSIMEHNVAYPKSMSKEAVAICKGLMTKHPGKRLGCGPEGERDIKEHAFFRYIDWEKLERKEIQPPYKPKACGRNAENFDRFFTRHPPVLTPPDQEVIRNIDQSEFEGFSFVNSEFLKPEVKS

ALK4(h) = biological target: T2, ALK4(h) (human, UniProt P36896 150-505, limits assumed)
T2 sequence (looked up): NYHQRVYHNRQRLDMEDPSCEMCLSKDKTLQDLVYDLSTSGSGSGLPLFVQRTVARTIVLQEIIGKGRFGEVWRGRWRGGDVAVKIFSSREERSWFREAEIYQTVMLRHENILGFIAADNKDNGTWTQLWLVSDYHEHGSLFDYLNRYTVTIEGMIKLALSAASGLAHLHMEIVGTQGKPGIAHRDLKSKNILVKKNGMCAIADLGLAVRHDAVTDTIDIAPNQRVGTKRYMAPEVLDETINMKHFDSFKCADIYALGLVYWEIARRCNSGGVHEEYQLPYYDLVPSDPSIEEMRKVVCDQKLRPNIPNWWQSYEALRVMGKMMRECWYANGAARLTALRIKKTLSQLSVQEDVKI

MST2(h) = biological target: T3, MST2(h) (human, UniProt Q13188 1-491)
T3 sequence (looked up): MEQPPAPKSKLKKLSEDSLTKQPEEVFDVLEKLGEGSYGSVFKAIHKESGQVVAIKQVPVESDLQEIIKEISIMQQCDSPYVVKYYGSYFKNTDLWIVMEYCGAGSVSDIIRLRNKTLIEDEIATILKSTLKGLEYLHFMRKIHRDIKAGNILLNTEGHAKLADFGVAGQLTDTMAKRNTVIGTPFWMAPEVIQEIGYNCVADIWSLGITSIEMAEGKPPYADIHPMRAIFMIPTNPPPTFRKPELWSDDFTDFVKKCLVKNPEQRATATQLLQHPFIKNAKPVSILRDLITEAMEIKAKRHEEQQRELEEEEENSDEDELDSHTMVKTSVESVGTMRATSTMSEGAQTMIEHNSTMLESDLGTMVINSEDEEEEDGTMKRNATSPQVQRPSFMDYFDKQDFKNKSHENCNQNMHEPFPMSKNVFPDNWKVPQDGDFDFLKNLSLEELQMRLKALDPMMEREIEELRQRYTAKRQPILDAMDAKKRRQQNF

Hck(h) = Hck(h) (human, UniProt P08631 251-518, limits assumed)
Hck(h), sequence (P08631 251-518 limits assumed): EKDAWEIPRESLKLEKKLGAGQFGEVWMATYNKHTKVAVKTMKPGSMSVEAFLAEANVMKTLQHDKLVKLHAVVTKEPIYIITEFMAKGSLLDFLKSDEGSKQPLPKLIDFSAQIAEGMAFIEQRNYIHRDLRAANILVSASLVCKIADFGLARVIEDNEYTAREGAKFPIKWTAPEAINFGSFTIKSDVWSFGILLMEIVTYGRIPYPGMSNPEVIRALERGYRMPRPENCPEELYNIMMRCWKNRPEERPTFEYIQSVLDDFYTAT

TrkB(h) = TrkB(h) (human, UniProt Q16620 455-822, limits assumed)
TrkB(h), sequence (Q16620 455-822 limits assumed): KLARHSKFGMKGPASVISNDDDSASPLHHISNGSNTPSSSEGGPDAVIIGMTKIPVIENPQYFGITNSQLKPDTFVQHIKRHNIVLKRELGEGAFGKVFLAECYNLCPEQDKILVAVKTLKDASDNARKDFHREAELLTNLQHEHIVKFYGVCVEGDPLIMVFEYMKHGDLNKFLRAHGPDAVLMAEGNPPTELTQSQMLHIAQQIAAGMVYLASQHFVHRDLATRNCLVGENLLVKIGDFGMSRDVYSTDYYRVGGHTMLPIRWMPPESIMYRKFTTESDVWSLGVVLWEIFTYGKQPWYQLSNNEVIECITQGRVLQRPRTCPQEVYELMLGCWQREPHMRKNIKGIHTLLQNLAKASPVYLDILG

CSK(h) = CSK(h) (human, UniProt P41240 1-450)
CSK(h), sequence (P41240 whole entry): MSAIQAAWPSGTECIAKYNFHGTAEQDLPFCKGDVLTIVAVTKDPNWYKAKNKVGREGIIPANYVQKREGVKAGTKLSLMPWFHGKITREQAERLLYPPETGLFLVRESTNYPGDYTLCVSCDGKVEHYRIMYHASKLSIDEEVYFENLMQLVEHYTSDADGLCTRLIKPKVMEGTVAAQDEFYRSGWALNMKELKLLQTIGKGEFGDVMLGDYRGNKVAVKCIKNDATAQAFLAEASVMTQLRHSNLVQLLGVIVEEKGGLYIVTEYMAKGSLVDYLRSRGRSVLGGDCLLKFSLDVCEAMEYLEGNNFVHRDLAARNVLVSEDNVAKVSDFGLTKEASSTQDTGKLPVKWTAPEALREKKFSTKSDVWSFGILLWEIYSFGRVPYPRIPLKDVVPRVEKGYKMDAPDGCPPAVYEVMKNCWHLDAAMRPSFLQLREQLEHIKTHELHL

MAPK1(h) = MAPK1(h) (human, UniProt P28482 1-360, limits assumed)
MAPK1(h), sequence (P28482 whole entry): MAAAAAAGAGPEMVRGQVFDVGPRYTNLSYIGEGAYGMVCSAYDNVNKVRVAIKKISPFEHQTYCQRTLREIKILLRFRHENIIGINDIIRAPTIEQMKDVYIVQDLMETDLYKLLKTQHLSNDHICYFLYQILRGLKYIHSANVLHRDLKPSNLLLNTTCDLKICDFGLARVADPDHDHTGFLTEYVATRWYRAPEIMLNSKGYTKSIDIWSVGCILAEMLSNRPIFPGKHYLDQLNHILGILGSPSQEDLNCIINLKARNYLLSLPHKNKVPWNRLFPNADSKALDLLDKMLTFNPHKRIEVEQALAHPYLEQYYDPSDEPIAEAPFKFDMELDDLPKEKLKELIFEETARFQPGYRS

cKit(V654A)(h) = cKit(V654A)(h) (human, UniProt P10721 544-976)
cKit(V654A)(h), sequence (P10721 544-976 V654A): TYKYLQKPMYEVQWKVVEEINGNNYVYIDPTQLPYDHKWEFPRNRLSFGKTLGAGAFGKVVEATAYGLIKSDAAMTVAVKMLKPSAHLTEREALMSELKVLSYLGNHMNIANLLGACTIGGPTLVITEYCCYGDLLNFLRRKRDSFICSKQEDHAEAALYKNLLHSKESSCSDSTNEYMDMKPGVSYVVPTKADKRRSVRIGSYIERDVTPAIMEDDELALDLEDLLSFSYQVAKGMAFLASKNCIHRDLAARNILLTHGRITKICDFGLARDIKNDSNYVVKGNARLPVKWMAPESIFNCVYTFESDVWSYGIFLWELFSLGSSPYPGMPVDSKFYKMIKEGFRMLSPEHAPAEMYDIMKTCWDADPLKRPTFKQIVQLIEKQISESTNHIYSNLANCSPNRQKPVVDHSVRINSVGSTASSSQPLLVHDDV

DRAK1(h) = biological target: T4, DRAK1(h) (human, UniProt Q9UEE5 1-414, limits assumed)
T4 sequence (looked up): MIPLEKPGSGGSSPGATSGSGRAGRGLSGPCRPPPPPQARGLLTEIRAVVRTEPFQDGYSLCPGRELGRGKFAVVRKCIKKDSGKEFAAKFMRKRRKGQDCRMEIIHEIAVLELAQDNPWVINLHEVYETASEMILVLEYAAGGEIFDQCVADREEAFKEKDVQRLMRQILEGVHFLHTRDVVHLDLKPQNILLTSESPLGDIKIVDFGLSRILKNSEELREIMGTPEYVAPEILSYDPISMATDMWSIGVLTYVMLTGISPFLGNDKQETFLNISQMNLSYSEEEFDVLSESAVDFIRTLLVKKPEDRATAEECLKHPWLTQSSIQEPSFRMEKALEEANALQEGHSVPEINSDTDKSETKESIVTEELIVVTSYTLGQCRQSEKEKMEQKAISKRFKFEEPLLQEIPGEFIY

CHK1(h) = biological target: T5, CHK1(h) (human, UniProt O14757 1-476)
T5 sequence (looked up): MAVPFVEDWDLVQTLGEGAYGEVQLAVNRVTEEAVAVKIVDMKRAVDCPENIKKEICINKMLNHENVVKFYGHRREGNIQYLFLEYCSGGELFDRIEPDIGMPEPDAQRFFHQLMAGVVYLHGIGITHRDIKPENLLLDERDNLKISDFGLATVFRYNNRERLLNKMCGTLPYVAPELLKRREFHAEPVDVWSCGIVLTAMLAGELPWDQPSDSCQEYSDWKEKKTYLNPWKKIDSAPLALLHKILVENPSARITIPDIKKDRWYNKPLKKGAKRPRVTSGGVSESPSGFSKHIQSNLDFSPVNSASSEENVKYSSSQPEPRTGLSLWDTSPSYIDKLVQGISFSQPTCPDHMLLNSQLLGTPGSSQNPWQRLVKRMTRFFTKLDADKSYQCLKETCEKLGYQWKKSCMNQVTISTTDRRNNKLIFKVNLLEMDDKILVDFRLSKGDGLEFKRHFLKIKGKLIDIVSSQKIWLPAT

AMPKα2(h) = AMPKα2(h) (human, UniProt P54646 1-552)
AMPKα2(h), sequence (P54646 whole entry): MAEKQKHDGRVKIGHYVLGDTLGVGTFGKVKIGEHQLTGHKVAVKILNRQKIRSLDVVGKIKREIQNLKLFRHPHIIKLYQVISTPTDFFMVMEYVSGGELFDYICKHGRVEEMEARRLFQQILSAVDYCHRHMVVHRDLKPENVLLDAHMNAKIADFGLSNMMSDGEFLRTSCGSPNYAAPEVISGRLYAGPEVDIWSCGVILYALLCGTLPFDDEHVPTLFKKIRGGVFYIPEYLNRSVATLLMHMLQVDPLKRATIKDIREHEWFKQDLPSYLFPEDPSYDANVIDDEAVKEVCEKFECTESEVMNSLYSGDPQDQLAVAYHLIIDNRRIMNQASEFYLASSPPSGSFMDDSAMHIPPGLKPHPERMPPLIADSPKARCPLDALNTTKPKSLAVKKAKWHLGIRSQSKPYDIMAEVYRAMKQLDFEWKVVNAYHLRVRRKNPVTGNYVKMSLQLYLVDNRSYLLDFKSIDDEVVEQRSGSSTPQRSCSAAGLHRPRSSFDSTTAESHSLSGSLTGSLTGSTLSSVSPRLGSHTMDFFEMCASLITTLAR

JNK3(h) = JNK3(h) (human, UniProt P53779 1-464, limits assumed)
JNK3(h), sequence (P53779 whole entry): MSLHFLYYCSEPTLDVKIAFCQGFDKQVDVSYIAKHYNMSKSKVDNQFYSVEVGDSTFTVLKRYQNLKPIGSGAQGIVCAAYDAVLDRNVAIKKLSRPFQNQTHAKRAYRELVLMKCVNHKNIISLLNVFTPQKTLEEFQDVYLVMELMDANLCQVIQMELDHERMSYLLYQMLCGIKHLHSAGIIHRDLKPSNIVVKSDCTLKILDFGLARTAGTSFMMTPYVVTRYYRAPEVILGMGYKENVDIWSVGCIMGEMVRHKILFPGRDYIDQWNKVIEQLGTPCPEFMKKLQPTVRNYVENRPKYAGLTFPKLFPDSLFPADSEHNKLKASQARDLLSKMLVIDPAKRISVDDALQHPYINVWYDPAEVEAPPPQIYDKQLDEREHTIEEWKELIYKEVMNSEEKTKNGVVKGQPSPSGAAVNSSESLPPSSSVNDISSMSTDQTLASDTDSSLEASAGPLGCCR

FGFR1(V561M)(h) = FGFR1(V561M)(h) (human, UniProt P11362 456-765, limits assumed)
FGFR1(V561M)(h), sequence (P11362 456-765 V561M limits assumed): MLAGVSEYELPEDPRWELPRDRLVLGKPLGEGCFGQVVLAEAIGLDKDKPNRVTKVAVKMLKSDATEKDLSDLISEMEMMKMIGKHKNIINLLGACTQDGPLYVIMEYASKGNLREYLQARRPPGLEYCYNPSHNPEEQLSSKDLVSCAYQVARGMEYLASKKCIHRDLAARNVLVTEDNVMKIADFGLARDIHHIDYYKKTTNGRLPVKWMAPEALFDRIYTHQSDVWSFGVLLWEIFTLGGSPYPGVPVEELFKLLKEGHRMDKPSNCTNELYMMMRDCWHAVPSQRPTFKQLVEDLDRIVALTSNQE

## FAKLAARLYRKALARQLGVAA [MMI-0300]
ULK3(h)
  % activity, 100 µM: 167%
PKCβII(h)
  % activity, 100 µM: 82%
ALK4(h)
  % activity, 100 µM: 140%
MST2(h)
  % activity, 100 µM: 19%
Hck(h)
  % activity, 100 µM: 72%
TrkB(h)
  % activity, 100 µM: 5%
CSK(h)
  % activity, 100 µM: 49%
MAPK1(h)
  % activity, 100 µM: 107%
cKit(V654A)(h)
  % activity, 100 µM: 134%
DRAK1(h)
  % activity, 100 µM: 14%
CHK1(h)
  % activity, 100 µM: 91%
AMPKα2(h)
  % activity, 100 µM: 54%
JNK3(h)
  % activity, 100 µM: 89%
FGFR1(V561M)(h)
  % activity, 100 µM: 74%

## KAFAKLAARLYRKALARQLGVAA [MMI-0400]
ULK3(h)
  % activity, 100 µM: 147%
PKCβII(h)
  % activity, 100 µM: 75%
ALK4(h)
  % activity, 100 µM: 130%
MST2(h)
  % activity, 100 µM: 11%
Hck(h)
  % activity, 100 µM: 72%
TrkB(h)
  % activity, 100 µM: 8%
CSK(h)
  % activity, 100 µM: 16%
MAPK1(h)
  % activity, 100 µM: 100%
cKit(V654A)(h)
  % activity, 100 µM: 150%
DRAK1(h)
  % activity, 100 µM: 14%
CHK1(h)
  % activity, 100 µM: 87%
AMPKα2(h)
  % activity, 100 µM: 58%
JNK3(h)
  % activity, 100 µM: 70%
FGFR1(V561M)(h)
  % activity, 100 µM: 74%
